Results on 3 proteins are retold here after doi:10.1101/737593 (bioRxiv, 2019).

Substitutions are numbered along the chain they refer to.

B1: His6-MrpC lacking the 25 amino terminal residues (His6-MrpC_(ΔN25)) (domain or fragment, Myxococcus xanthus, UniProt Q9FDC4 26-248, looked up)
chain: MMVTANKLVPGQEAIDFKGYFKVESFPHNSTIYRPGDNTDRVYLLKSGRVRLMRIGKNSTRSVVSILRPGDLFGELFRPEGTPIEEMAIAAGEAEVWSIEGRDFRAQLEARPALAVDVVRAYAERVRALRKRVLGLTFKEVPARLADTLLTLVEAHGERCPHGGETDLRGITQQDLADLVGASRSFVSTLINEMKREGVLGNVGRILCVRDQKALRKIAGKEK
B2: hexa-histidine affinity tagged (His6)-MrpC (natural protein, Myxococcus xanthus, UniProt Q9FDC4 1-248, looked up)
chain: MHGFNRPLGPIGSNVVAPLQTTSSGMMVTANKLVPGQEAIDFKGYFKVESFPHNSTIYRPGDNTDRVYLLKSGRVRLMRIGKNSTRSVVSILRPGDLFGELFRPEGTPIEEMAIAAGEAEVWSIEGRDFRAQLEARPALAVDVVRAYAERVRALRKRVLGLTFKEVPARLADTLLTLVEAHGERCPHGGETDLRGITQQDLADLVGASRSFVSTLINEMKREGVLGNVGRILCVRDQKALRKIAGKEK
B3: His6-MrpC_(AAAA) (natural protein, Myxococcus xanthus, UniProt Q9FDC4 1-248, looked up)
chain: B2 chain with T21A, T22A, S23A, S24A

This series concerns the molecule itself. In words: SEC.
By stoichiometry N is commonly meant a count of units in the complex or per binding partner. On to B1, for which the “stoichiometry N” value worked out at 2.

For B2, the “stoichiometry N” value turned out to be 2.

Consider B3, for which the “stoichiometry N” value is 2.
